Reference: US20020045191A1, “Inhibition of the SRC kinase family pathway as a method of treating HBV infection and hepatocellular carcinoma” (priority 2000, published 2002)

How the values were obtained:
[1] = system: CMV promoter; test: CMV-βgal reporter control (β-galactosidase activity); assay type: cell-based; details: co-expression of Csk with CMV-βgal
From the text: (§1) To assess whether HBx activation of a Src signaling cascade plays an essential role in transcriptional upregulation of the viral mRNAs, Chang cells were co-transfected with wtWHV and either RasDN or Csk plasmids, and the RNA visualized by Northern analysis (FIG. 7, lanes 2 and 3). […] To ensure that the decrease in synthesis of WHV RNA by Csk was not the unforseen consequence of Csk inhibition of the CMV promoter (which drives synthesis of the WHV pregenomic RNA), control experiments assessing the effect of Csk on a CMV-βgal reporter were carried out. […] However, the WHx-induced increase in mRNA abundance (˜3-5 fold) is much less then the HBx-induced increase in viral DNA synthesis (˜20-30 fold). […] The stimulation of Src signaling cascades by HBx must therefore promote WHV replication independent of the effect of WHx on viral transcription.

[2] = system: MAP kinase (ERK2); test: MAP kinase (ERK2) MBP kinase assay during WHV replication in Chang cells; assay type: cell-based, human; details: co-expression with wtWHV
Method: FIG. 6. Woodchuck Hepatitis B Virus (WHV) HBx protein (WHx) activates a Src-Ras signaling cascade during WHV replication in cultured cells. […] Eighteen hours post-transfection, cells were serum-starved in 0.5% CS for 20 hours, MAP kinase (ERK-2) was immunoprecipitated from equal amounts of cell lysates and pellets were subjected to an in vitro MBP kinase assay.
To assay for MAP kinase activity, cells were lysed in freshly prepared lysis buffer (10 mM Tris HC1 pH 7.5, 1% Triton X-100, 0.5% NP-40, 1 mM EDTA, 1 mM EGTA, 1 mM Na3VO4, 50 mM NaF, 1 mM PMSF, 40 mM PPi, 10 μg/ml aprotinin, and 10 μg/ml leupeptin) and MAP kinase was immunoprecipitated using 1μg/ml anti-ERK2 antibodies from equal amounts of protein. After 4 washes with lysis buffer, and 2 with kinase buffer (20 mM Hepes pH 7.4, 10 mM MgCl2), the immunoprecipitates were incubated with kinase buffer including 0.5 mg/ml myelin basic protein (MBP, Sigma), 10 mM ATP and 5 μCi [γ-^32P]ATP for 30 minutes at 30° C. […]
To determine whether WHx also requires activation of Src family kinases for stimulation of Ras signaling during ongoing viral replication, Chang cells were co-transfected with plasmids synthesizing wtWHV and dominant-negative Ras (RasDN), dominant-negative Src (SrcK^−), or Csk proteins, and activation of MAP kinase was measured. […]

[3] = system: N-Myc; test: N-Myc immunoblot of nuclear extracts, HBx-transfected Chang cells; assay type: cell-based, human; details: co-expression with HBx, serum-starved 20 hours
Method: Chang cells were transfected with plasmids expressing HBxo, HBx, Csk, SrcK^−, FynK^−, and the dominant-negative Ras (RasN17). The Ras N17 mutant was initially shown to preferentially bind GDP in vitro and to inhibit cellular proliferation when stably expressed in NIH 3T3 cells (Feig et al., 1988, Moll. Cell Biol. 8:3235-3243). Transfected cells were serum-starved for 20 hours, nuclear extracts prepared, equal amounts of protein resolved by SDS-PAGE and immunoblotted with anti-N-Myc antibodies. Expression of transfected HBx elevates the amount of N-Myc protein 3-4 fold. […] The inability of dominant-negative Ras or Fyn proteins to block Src activation is consistent with the report by Barone and Courtneidge (1995, supra). Co-expression of HBx with the dominant-negative Ras had no effect on induction of N-Myc by HBx, and neither did the expression of dominant-negative Fyn protein. Whether other Src family members (e.g. Yes or Lyn) are involved in N-Myc induction by HBx was not tested in these experiments.

[4] = system: MAP kinase (ERK2); test: MAP kinase (ERK2) immunoprecipitation / MBP kinase assay in HBx-transfected Chang cells; assay type: cell-based, human
Method: (FIG. 2B) ERK2 was immunoprecipitated from equal amounts of cell lysates analyzed by in vitro phosphorylation of myelin basic protein (MBP) using [γ-^32P] ATP. […] Cells were stimulated with 100 μg/ml of insulin (Intergen) for 10 min.
To assay for MAP kinase activity, cells were lysed in freshly prepared lysis buffer (10 mM Tris HC1 pH 7.5, 1% Triton X-100, 0.5% NP-40, 1 mM EDTA, 1 mM EGTA, 1 mM Na3VO4, 50 mM NaF, 1 mM PMSF, 40 mM PPi, 10 μg/ml aprotinin, and 10 μg/ml leupeptin) and MAP kinase was immunoprecipitated using 1μg/ml anti-ERK2 antibodies from equal amounts of protein. After 4 washes with lysis buffer, and 2 with kinase buffer (20 mM Hepes pH 7.4, 10 mM MgCl2), the immunoprecipitates were incubated with kinase buffer including 0.5 mg/ml myelin basic protein (MBP, Sigma), 10 mM ATP and 5 μCi [γ-^32P]ATP for 30 minutes at 30° C. The reactions were stopped by the addition of 2× sample loading buffer (Sambrook et al. 1989, supra), resolved by 15% SDS-PAGE and visualized by autoradiography. Assays for activation of JNK MAP kinases were carried out exactly as described above, except that the immunoprecipitated JNK was incubated with 5 μg purified GST-c-Jun (Benn et al., 1996, supra) and 10 μCi [γ-^32P]ATP, and resolved by 10% SDS-PAGE.
To test whether HBx activation of the Src family of kinases is required for stimulation of Ras signaling by HBx, Chang cells were transfected at low density with plasmids expressing HBxo, HBx or HBx and Csk, serum-starved for 20 hours, 2% serum restored for 2 hours to permit protein synthesis, and activation of immunoprecipitated MAP kinase at the end of the Ras-MAP kinase cascade assayed by incubation with myelin basic protein (MBP) and [γ-^32P]ATP (FIG. 2). Expression of HBx induces a strong activation in the ability of MAP kinase to phosphorylate MBP that is abolished upon co-transfection of HBx with Csk. […]

[5] = system: WHV; test: WHV replication: Southern blot of core-associated viral DNA, Chang cells; assay type: cell-based, Woodchuck Hepatitis B Virus; details: co-expression with wtWHV, 3 days post-transfection
Method: FIG. 7. WHx requires activation of Src family kinase for WHV replication. Chang cells were co-transfected with 20 μg PCWHV, wtWHV, wtWHV and RasDN (dominant-negative) (10 μg), or wtWHV and Csk (10 μg). Three days post-transfection viral core-associated DNA was isolated, purified, and subjected to Southern blot analysis using a full-length ^32P-labeled WHV genomic probe.
Chang cells were transfected with infectious WHV clones, (2×10 cm plates) were washed twice with PBS and lysed in 500 μl lysis buffer/10 cm plate (20 mM Tris HCl pH 7.5, 1 mM EDTA, 100 mM NaCl, 0.5% NP-40) for 10-15 minutes. Lysates were centrifuged at 12,000× g for 30 minutes, MgCl2 was adjusted to 10 mM, DNAseI (Boehringer Mannheim) was added to 20 U/ml and the lysates were incubated at 37° C. for 2 hours. Following DNAse I treatment, the lysates were centrifuged for 5 min at 12,000× g, layered onto a 20% sucrose cushion (300 μl of 20% sucrose in 20 mM Tris HCl pH 8.0, 150 mM NaCl) and centrifuged for 178,000× g for 3 hours at 20° C. […]
Chang cells were co-transfected with plasmids encoding either wtWHV, PCWHV, wtWHV and RasDN, or wtWHV and Csk, intracellular core-associated viral DNA was isolated 3 days post-transfection, and purified viral DNA analyzed by Southern blot hybridization as described above (FIG. 7).

[6] = system: WHV; test: WHV RNA: Northern blot analysis, Chang cells; assay type: cell-based, Woodchuck Hepatitis B Virus; details: co-expression with wtWHV
Method: Chang cells were washed twice with PBS and total RNA prepared according to the manufacturer's instructions (RNeasy mini kit; Qiagen). 15 μg total RNA per sample were resolved through a 1.2% formaldehyde-agarose gel (Sambrook et al., 1989, supra), transferred to Duralon UV membrane, and pre-hybridized in Quick-Hyb solution (Stratagene) at 65° C. Hybridization to 32P-labeled full length WHV probe was carried out in the same solution at 65° C., washed as described above, and autoradiographed for 1 day.
as §1

[7] = system: AP-1; test: AP-1 electrophoretic mobility shift assay (EMSA), HBx-transfected Chang cells; assay type: cell-based, human; details: cotransfection of increasing amounts of Csk plasmid
Method: (FIG. 3A) Cell extracts were prepared for AP-1 EMSA as described (Benn et al., 1996, supra) using a ^32P-labeled dsDNA oligonucleotide probe containing one AP-1 binding site. Reactions were carried out using 3 μg of nuclear extract, labeled oligonuleotide and 1 μg of poly(dI-dC) for 30 min at 23° C. Protein-DNA complexes were resolved by electrophoresis on 4% polyacrylamide gels and visualized by PhosphorImage 5analysis. As a positive control for AP-1 stimulation, cells were treated with 20 μM TPA for 30 min.
Here it is shown that HBx activation of AP-1 DNA binding activity and AP-1 directed transcription, both involve an essential requirement for HBx activation of Src tyrosine kinases. Chang cells were transfected with plasmids expressing HBx or HBxo proteins, with or without cotransfection of Csk, serum starved and nuclear extracts prepared for electrophoretic mobility shift assay (EMSA) using equal amounts of nuclear extracts and a ^32P-labeled dsDNA probe containing one AP-1 binding site, as described (Benn et al., 1996 supra). Cotransfection of increasing amounts of the Csk expressing plasmid suppressed HBx induction of AP-1 DNA binding complexes in a titratable manner (FIG. 3A). […]

[8] = system: AP-1 dependent transcription; test: AP-1 dependent luciferase reporter, HBx-transfected Chang cells; assay type: cell-based, human; details: co-expression with Csk
Method: (FIG. 3B) Cells were transfected as above but contained in addition 3 μg of plasmid pAP-1Luc, which encodes the luciferase reporter under the control of four AP-1 binding sites and a minimal TATA box promoter. Serum starved cells were harvested 18 h after transfection and the level of expression of the luciferase reporter assayed. Results are the average of three independent experiments.
Here it is shown that HBx activation of AP-1 DNA binding activity and AP-1 directed transcription, both involve an essential requirement for HBx activation of Src tyrosine kinases. Chang cells were transfected with plasmids expressing HBx or HBxo proteins, with or without cotransfection of Csk, serum starved and nuclear extracts prepared for electrophoretic mobility shift assay (EMSA) using equal amounts of nuclear extracts and a ^32P-labeled dsDNA probe containing one AP-1 binding site, as described (Benn et al., 1996 supra). Cotransfection of increasing amounts of the Csk expressing plasmid suppressed HBx induction of AP-1 DNA binding complexes in a titratable manner (FIG. 3A). Finally, cells were cotransfected with plasmids expressing HBx or HBxo and an AP-1 dependent luciferase reporter under the control of a minimal promoter, with and without a Csk expression plasmid (FIG. 3B).

B1: Csk: protein tyrosine kinase C-terminal Src kinase, physiologic inhibitor of Src, expressed from plasmid (protein, UniProt P41240 2-450, looked up)
Tyrosine-protein kinase CSK: SAIQAAWPSGTECIAKYNFHGTAEQDLPFCKGDVLTIVAVTKDPNWYKAKNKVGREGIIPANYVQKREGVKAGTKLSLMPWFHGKITREQAERLLYPPETGLFLVRESTNYPGDYTLCVSCDGKVEHYRIMYHASKLSIDEEVYFENLMQLVEHYTSDADGLCTRLIKPKVMEGTVAAQDEFYRSGWALNMKELKLLQTIGKGEFGDVMLGDYRGNKVAVKCIKNDATAQAFLAEASVMTQLRHSNLVQLLGVIVEEKGGLYIVTEYMAKGSLVDYLRSRGRSVLGGDCLLKFSLDVCEAMEYLEGNNFVHRDLAARNVLVSEDNVAKVSDFGLTKEASSTQDTGKLPVKWTAPEALREKKFSTKSDVWSFGILLWEIYSFGRVPYPRIPLKDVVPRVEKGYKMDAPDGCPPAVYEVMKNCWHLDAAMRPSFLQLREQLEHIKTHELHL
In the case of B1, the “expression of βgal protein from CMV-βgal (β-galactosidase activity)” value [1] is reported as “did not significantly alter”, the “downstream activation of MAP kinase by wtWHV” value [2] is reported as “efficiently inhibited” and the “increase in N-Myc protein by HBx” value [3] is reported as “impaired”. The “HBx activation of ERK2” value ([4]; co-expression with HBx, serum-starved in 0.5% CS for 24 hours) was “impaired”, the “HBx activation of MAP kinase (phosphorylation of MBP)” value ([4]; co-transfection of HBx with Csk, serum-starved 20 hours, 2% serum 2 hours) was “abolished” and the “activation of MAP kinase by insulin” value ([4]; overexpression of Csk) was “only slightly impaired”. For the same molecule, the “WHV replication (core-associated viral DNA)” value [5] was “completely abolished”, the “reduction of WHV RNA level” value [6] was 3-5 fold and the “HBx induction of AP-1 DNA binding complexes” value [7] was “suppressed”. For the same molecule, the “HBx induced activation of AP-1 dependent transcription” value [8] was “fully blocked”.
